Data on nine proteins can be found in publication PMC6769022, “Identification of an adhesive interface for the non-clustered δ1 protocadherin-1 involved in respiratory diseases” (Communications Biology, 2019).

Series [1] deals with the molecule itself. Briefly: bead aggregation assay; Fc fusions from concentrated HEK293T medium bound to protein G Dynabeads, washed; binding buffer 50 mM TrisHCl pH 7.5, 100 mM NaCl, 10 mM KCl, 0.2% BSA with 2 mM CaCl2; 60 min without motion, then 1 and 2 min rocking; aggregates imaged.
Series [2] concerns the molecule itself. Briefly: crystal structure; vapor diffusion at 4 °C; one molecule in the asymmetric unit, antiparallel dimers formed by crystal symmetry.
Series [3] deals with the molecule itself. Briefly: AUC; sedimentation velocity, 50,000 r.p.m., 20 °C, 20 mM Tris-HCl pH 8.0, 150 mM KCl, 50 mM NaCl, 2 mM CaCl2; dimer to monomers.

Residue numbers refer to the chain shown, from its start. Numbers in names are those of the source.

B1: PCDH1 EC1-7Fc (Fc fusion, human, UniProt Q08174 58-852, looked up)
chain: TRVVYKVPEEQPPNTLIGSLAADYGFPDVGHLYKLEVGAPYLRVDGKTGDIFTTETSIDREGLRECQNQLPGDPCILEFEVSITDLVQNGSPRLLEGQIEVQDINDNTPNFASPVITLAIPENTNIGSLFPIPLASDRDAGPNGVASYELQAGPEAQELFGLQVAEDQEEKQPQLIVMGNLDRERWDSYDLTIKVQDGGSPPRASSALLRVTVLDTNDNAPKFERPSYEAELSENSPIGHSVIQVKANDSDQGANAEIEYTFHQAPEVVRRLLRLDRNTGLITVQGPVDREDLSTLRFSVLAKDRGTNPKSARAQVVVTVKDMNDNAPTIEIRGIGLVTHQDGMANISEDVAEETAVALVQVSDRDEGENAAVTCVVAGDVPFQLRQASETGSDSKKKYFLQTTTPLDYEKVKDYTIEIVAVDSGNPPLSSTNSLKVQVVDVNDNAPVFTQSVTEVAFPENNKPGEVIAEITASDADSGSNAELVYSLEPEPAAKGLFTISPETGEIQVKTSLDREQRESYELKVVAADRGSPSLQGTATVLVNVLDCNDNDPKFMLSGYNFSVMENMPALSPVGMVTVIDGDKGENAQVQLSVEQDNGDFVIQNGTGTILSSLSFDREQQSTYTFQLKAVDGGVPPRSAYVGVTINVLDENDNAPYITAPSNTSHKLLTPQTRLGETVSQVAAEDFDSGVNAELIYSIAGGNPYGLFQIGSHSGAITLEKEIERRHHGLHRLVVKVSDRGKPPRYGTALVHLYVNETLANRTLLETLLGHSLDTPLDIDIAGDPEYERSKQRGN
notes: Protocadherin-1 (PCDH1), human, repeats EC1 to EC7 (full-length extracellular domain); native signal peptide in the construct; Vector CMV:N1-Fc; Fc detected with anti-human IgG; also called human Protocadherin-1 full-length extracellular domain, Fc-tagged; wild-type PCDH1 EC1-7Fc; source: HEK293T, transfected, secreted into serum-free medium, captured on protein G Dynabeads
Turning to B1, the binding result in series [1] is given as “binds”.

B2: PCDH1 EC1-7Fc V115R (Fc fusion, human, UniProt Q08174 58-852, looked up)
chain: B1 chain with V115R
notes: Protocadherin-1 (PCDH1), human, repeats EC1 to EC7; native signal peptide in the construct; Vector CMV:N1-Fc; source: HEK293T, transfected, secreted into serum-free medium, captured on protein G Dynabeads
Turning to B2, the binding result in series [1] is reported as “binds”.

B3: PCDH1 EC1-7Fc C375S C548S (Fc fusion, human, UniProt Q08174 58-852, looked up)
chain: B1 chain with C375S, C548S
notes: as for B2
For the protein B3, the binding result in series [1] is “binds”.

B4: Hs PCDH1 EC1-4bc (domain or fragment, human)
chain: TRVVYKVPEEQPPNTLIGSLAADYGFPDVGHLYKLEVGAPYLRVDGKTGDIFTTETSIDREGLRECQNQLPGDPCILEFEVSITDLVQNGSPRLLEGQIEVQDINDNTPNFASPVITLAIPENTNIGSLFPIPLASDRDAGPNGVASYELQAGPEAQELFGLQVAEDQEEKQPQLIVMGNLDRERWDSYDLTIKVQDGGSPPRASSALLRVTVLDTNDNAPKFERPSYEAELSENSPIGHSVIQVKANDSDQGANAEIEYTFHQAPEVVRRLLRLDRNTGLITVQGPVDREDLSTLRFSVLAKDRGTNPKSARAQVVVTVKDMNDNAPTIEIRGIGLVTHQDGMANISEDVAEETAVALVQVSDRDEGENAAVTCVVAGDVPFQLRQASETGSDSKKKYFLQTTTPLDYEKVKDYTIEIVAVDSGNPPLSSTNSLKVQVVDVNDNA
notes: Protocadherin-1 (PCDH1), human, repeats EC1 to EC4, without signal peptide; also called PCDH1 EC1-4 (bacterially produced, wild type)
For the protein B4, the binding result in series [2] was “binds”.

B5: Hs PCDH1 EC1-4mc (domain or fragment, human)
chain: B4 chain
modifications: sugars observed at N248 (N-linked) and S430 (O-linked) in the structure
notes: Protocadherin-1 (PCDH1), human, repeats EC1 to EC4; Vector CMV:N1-His; also called PCDH1 EC1-4His
Turning to B5, the binding result in series [2] is reported as “binds”.

B6: PCDH1 EC1-4Fc (Fc fusion, human)
chain: B4 chain
notes: Protocadherin-1 (PCDH1), human, repeats EC1 to EC4; native signal peptide in the construct; Vector CMV:N1-Fc; PDB 6MGA holds the His-tagged mammalian EC1-4 fragment; source: HEK293T, transfected, secreted into serum-free medium, captured on protein G Dynabeads
As for B6, the binding result in series [1] is “binds”.

B7: PCDH1 EC1-4 C375S (domain or fragment, human)
chain: B4 chain with C375S
notes: Protocadherin-1 (PCDH1), human, repeats EC1 to EC4, without signal peptide; Parent (wild-type bacterial EC1-4) is in PDB 6BX7; also called bacterially produced PCDH1 EC1-4 C375S
Usually Kd stands for the free concentration of one partner at which half of the binding sites on the other are occupied at equilibrium, for simple one-to-one binding. High values mean lower affinity, low ones higher affinity. By stoichiometry N is commonly meant the number of molecules, sites or subunits per partner or assembly. Turning to B7, in series [3], the Kd is below 5 µM and the “stoichiometry N” value was 2.

B8: PCDH1 EC1-5 C375S C548S (domain or fragment)
chain: MTRVVYKVPEEQPPNTLIGSLAADYGFPDVGHLYKLEVGAPYLRVDGKTGDIFTTETSIDREGLRECQNQLPGDPCILEFEVSITDLVQNGSPRLLEGQIEVQDINDNTPNFASPVITLAIPENTNIGSLFPIPLASDRDAGPNGVASYELQAGPEAQELFGLQVAEDQEEKQPQLIVMGNLDRERWDSYDLTIKVQDGGSPPRASSALLRVTVLDTNDNAPKFERPSYEAELSENSPIGHSVIQVKANDSDQGANAEIEYTFHQAPEVVRRLLRLDRNTGLITVQGPVDREDLSTLRFSVLAKDRGTNPKSARAQVVVTVKDMNDNAPTIEIRGIGLVTHQDGMANISEDVAEETAVALVQVSDRDEGENAAVTSVVAGDVPFQLRQASETGSDSKKKYFLQTTTPLDYEKVKDYTIEIVAVDSGNPPLSSTNSLKVQVVDVNDNAPVFTQSVTEVAFPENNKPGEVIAEITASDADSGSNAELVYSLEPEPAAKGLFTISPETGEIQVKTSLDREQRESYELKVVAADRGSPSLQGTATVLVNVLDSNDNDLEHHHHHH
Turning to B8, in series [3], the dissociation constant (Kd) is below 5 µM and the “stoichiometry N” value turned out to be 2.

B9: PCDH1 EC1-5 C375S C548S V115R (domain or fragment)
chain: B8 chain with V116R
For B9, the “stoichiometry N” value in series [3] turned out to be 2.
